Test results from PMC8113726.

Molecular target: Xenopus cyclase-associated protein 1 (XCAP1) (X. laevis (endogenous in oocytes))
Assay: SEC-MALS + AUC; purified native XCAP1-actin complex; SEC-MALS on SRT SEC-300 in PBS pH 7.2, 0.02% NaN3, 20 °C; sedimentation velocity at 40,000 rpm, 20 °C

Xenopus cyclase-associated protein 1 (XCAP1) (natural protein)
stoichiometry N: 4
